# Source: article PMC7534926 (The Journal of Cell Biology, 2020)
# No end group written: not given here. *: point of attachment. Biotin = O=C1N[C@H]2[C@H](CS[C@H]2CCCCC(=O)*)N1
# Legend:
# Erbin PDZ domain = Erbin PDZ domain (UniProt Q96RT1); assay: PDZ-domain microarray probed with biotinylated peptide; settings: reference: unphosphorylated peptide; sites S1242,S1245
# Pdlim5 PDZ domain = Pdlim5 PDZ domain (UniProt Q96HC4); assay: as above
# [1] = target: endogenous delta-catenin of rat hippocampal neurons (rat (endogenous in primary hippocampal neurons)) (UniProt O35116); assay: proximity ligation
# Sequence of endogenous delta-catenin of rat hippocampal neurons (rat (endogenous in primary hippocampal neurons)) (O35116 whole entry, stated change not applied): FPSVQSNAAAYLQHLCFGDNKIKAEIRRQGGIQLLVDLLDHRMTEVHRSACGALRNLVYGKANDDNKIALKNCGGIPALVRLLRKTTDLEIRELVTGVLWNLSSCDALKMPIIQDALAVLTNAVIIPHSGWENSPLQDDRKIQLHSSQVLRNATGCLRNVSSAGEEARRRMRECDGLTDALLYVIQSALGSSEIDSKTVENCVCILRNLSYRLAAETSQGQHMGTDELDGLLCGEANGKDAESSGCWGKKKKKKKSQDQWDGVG
# Pdlim5 = Pdlim5 (UniProt Q62920); assay: proximity ligation assay; settings: reference: no treatment; sites S1242
# Magi1 = Magi1 (UniProt Q4L1J4); assay: proximity ligation assay; settings: reference: no treatment; sites S1242
# Sequence of Magi1 (Q4L1J4 whole entry, looked up, the tested form may be a part): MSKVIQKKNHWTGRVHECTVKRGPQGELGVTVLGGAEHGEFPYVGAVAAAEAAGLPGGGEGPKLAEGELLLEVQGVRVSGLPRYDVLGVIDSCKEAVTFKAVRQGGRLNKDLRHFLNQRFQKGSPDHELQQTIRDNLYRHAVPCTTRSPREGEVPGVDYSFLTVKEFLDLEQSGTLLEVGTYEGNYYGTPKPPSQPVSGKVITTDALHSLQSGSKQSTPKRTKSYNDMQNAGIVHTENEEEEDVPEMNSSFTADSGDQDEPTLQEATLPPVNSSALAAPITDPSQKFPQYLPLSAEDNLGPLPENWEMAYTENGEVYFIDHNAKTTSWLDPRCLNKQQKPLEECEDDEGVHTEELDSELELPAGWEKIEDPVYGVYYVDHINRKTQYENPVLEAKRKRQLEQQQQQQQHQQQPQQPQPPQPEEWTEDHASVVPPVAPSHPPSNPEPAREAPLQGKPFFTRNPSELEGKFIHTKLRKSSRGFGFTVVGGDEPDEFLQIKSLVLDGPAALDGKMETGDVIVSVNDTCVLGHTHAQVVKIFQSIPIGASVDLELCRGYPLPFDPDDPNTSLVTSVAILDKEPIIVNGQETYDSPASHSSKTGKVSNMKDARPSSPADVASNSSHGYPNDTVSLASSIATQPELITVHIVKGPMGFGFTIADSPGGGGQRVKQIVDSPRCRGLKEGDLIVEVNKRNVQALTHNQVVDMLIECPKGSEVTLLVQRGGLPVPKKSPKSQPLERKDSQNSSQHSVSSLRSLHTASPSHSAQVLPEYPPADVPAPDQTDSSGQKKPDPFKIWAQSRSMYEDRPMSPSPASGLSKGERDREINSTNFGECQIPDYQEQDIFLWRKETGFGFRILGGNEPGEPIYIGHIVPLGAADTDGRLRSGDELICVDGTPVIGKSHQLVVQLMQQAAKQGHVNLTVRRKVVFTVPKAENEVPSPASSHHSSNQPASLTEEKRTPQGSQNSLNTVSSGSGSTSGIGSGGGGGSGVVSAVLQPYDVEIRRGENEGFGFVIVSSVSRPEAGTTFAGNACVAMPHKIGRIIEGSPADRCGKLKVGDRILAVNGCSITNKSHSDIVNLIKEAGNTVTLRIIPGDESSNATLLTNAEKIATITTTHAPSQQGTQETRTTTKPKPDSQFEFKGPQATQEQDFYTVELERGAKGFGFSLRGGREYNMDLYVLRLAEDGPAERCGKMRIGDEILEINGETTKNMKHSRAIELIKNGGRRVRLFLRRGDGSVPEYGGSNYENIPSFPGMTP
# [2] = target: GST fusion of the PDZ domain of Erbin (array) (human, UniProt Q96RT1 1321-1410); assay: peptide or protein array
# Sequence of GST fusion of the PDZ domain of Erbin (array) (Q96RT1 1321-1410): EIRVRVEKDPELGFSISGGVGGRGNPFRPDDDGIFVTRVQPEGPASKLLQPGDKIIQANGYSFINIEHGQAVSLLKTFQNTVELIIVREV
Molecule,"PLA puncta per cell (20 µM DHPG, 10 min) [1]",PLA puncta per cell (no treatment) [1],PLA puncta per neuron (puncta per neuron) [1],also measured
delta-catenin C-terminal PDZ-binding motif (from UniProt O35927) phosphorylated peptide (doubly phosphorylated probe assumed),–,–,–,binding against the reference (Erbin PDZ domain): same
delta-catenin C-terminal PDZ-binding motif (from UniProt O35927) pS1242 + pS1245 peptide,–,–,–,"binding against the reference (Pdlim5 PDZ domain; reference: pS1242-only peptide, sites S1245): stronger; binding against the reference (Pdlim5 PDZ domain; reference: pS1245-only peptide, sites S1242): stronger"
endogenous Magi1 of rat hippocampal neurons (from UniProt Q4L1J4 1-1255) (natural protein),8.95 puncta/cell,21.1 puncta/cell,16,–
"delta-catenin 20 µM DHPG, 10 min",–,–,–,other: PLA puncta per cell (Pdlim5): stronger; reference 20.46 ± 1.41; other: PLA puncta per cell (Magi1): weaker; reference 21.15 ± 7.24
endogenous Pdlim5 of rat hippocampal neurons (natural protein) MSNYNVSLVGPAPWGFRLQGGKDFNMPLTISSLKDGGKASQAHVRIGDVVLSIDGISAQGMTHLEAQNKIKACTGSLNMTLQRASAAAKSEPVAVQKGEPKEVVKPVPITSPAVSKVTSTTNMAYNKVPRPFGSVSSPKVTSIPSPSSAFTPAHAATSSHASPPPVAAVTPPPLSASGLHASANPSAAQCSSPPNTGKPAVHVPRQPTVTSVCSESAQELAEGQRRGSQGDIKQQNGPPRKHIVERNTEFYHIPTHSDASKKRLIEDTEDWRPRTGTTQSRSFRILAQITGTEHLKESENDNAKKANSTPEPSQQSASPLSAAESLESPGSNRPVVAGLRSAAAFKPVGSTSVKSPSWQRPNQAAPSTGRISNSASSSGTGAPMKPAVGPPQPSDQDTLVQRAEHIPAGKRTPMCAHCNQAIRGPFLVALGKSWHPEEFNCAHCKNTMAYIGFVEEKGALYCELCYEKFFAPECGRCQRKILGEVINALKQTWHVSCFVCVACGKPIRNNVFHLEDGEPYCETDYYALFGTICRGCEFPIEAGDMFLEALGSTWHDTCFVCSVCCESLEGQTFFSKKDKPLCKKHAHSVNF,54.2 puncta/cell,20.5 puncta/cell,37.7,–
"Biotin-TSHYPASPDSWV [delta-catenin PDZ-binding motif peptide, De-Phospho (Biotin-TSHYPASPDSWV)]",–,–,–,binding result [2]: binds
